Laboratory results as given in US5807943A, “Synthesis of glycopolymers” (Johns Hopkins University, priority 1997, dated 1998).

Tests used:
liver-MBP-CRD = target: T1, liver-MBP-CRD (Rattus norvegicus, UniProt P08661); test: Solid-phase binding assay, inhibition of 125I-[mannose30-BSA] binding to liver MBP-CRD
T1 construct: Recombinant rat MBP-CRDs from serum and liver were expressed and purified; made in house; host or cells: bacteria (expression plasmid-bearing bacterial strains, gift of Dr. Kurt Drickamer)
T1 sequence (P08661 129-241 limits assumed): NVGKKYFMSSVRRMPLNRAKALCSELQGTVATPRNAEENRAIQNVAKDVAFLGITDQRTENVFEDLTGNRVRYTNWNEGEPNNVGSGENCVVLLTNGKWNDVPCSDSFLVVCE
Procedure: (§1) Glycoamidase A was from Seikagaku America, Inc. (Rockville, Md.). GlcNAc was purchased from Pfanstiehl Laboratories, Inc. (Waukegan, Ill.). 3-(N-acryloylamino)-propyl β-D-GlcNAc (GlcNAc-NAP) and GlcNAc-O-(CH2)3CH=CH2 were gifts from Dr. Shin-Ichiro Nishimura of Hokkaido University, Japan.
(§2) All steps were carried out at 4° C. Briefly, CRD (50 μl) was coated onto individual polystyrene wells (Immulon 4 Removawell Strips by Dynatech, from Fisher Scientific). […] Ligands and inhibitors were in 0.5% BSA in the above Tris buffer for binding and inhibition. […] The well contents were then removed, washed, and counted in a Packard Minaxi gamma counter.

serum-MBP-CRD = target: T2, serum-MBP-CRD (Rattus norvegicus, UniProt P19999); test: Solid-phase binding assay, inhibition of 125I-[mannose30-BSA] binding to serum MBP-CRD; conditions: in the concentration range of SBA tested
T2 construct: Recombinant rat MBP-CRDs from serum and liver were expressed and purified; made in house; host or cells: bacteria (expression plasmid-bearing bacterial strains, gift of Dr. Kurt Drickamer)
Procedure: as §1, §2

IC50 (liver-MBP-CRD; concentration based on Man9 GlcNAc2, 4° C., 20 hr incubation, read-out: I50 for the liver-MBP-CRD): 13.2 µM
I50 for the liver-MBP-CRD (liver-MBP-CRD; expressed as mg/ml of SBA): 0.4 mg/mL
inhibition of the serum-MBP-CRD (in words) (serum-MBP-CRD): no significant inhibition
Substance: soybean agglutinin [SBA]
